The source of these data is patent publication US20250262210A1 (TRUSTEES OF COLUMBIA UNIVERSITY IN THE CITY OF NEW YORK, published 2025).

Assay [1] deals with RNF213 (human, UniProt Q63HN8 1-5207, limits assumed). The assay can be described thus: IP/MS, LZTR1 wild type-FLAG, U87. The method, boiled down:
(§1)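 Gel slices were reduced with 5 mM DTT, alkylated with 11 mM IAA and digested overnight at 37° C. with trypsin. Peptides were analysed on an Orbitrap Fusion Tribrid by LC-MS/MS.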

Assay [2] concerns the target T1, ZCCHC6 (human, UniProt Q5VYS8 1-1495, limits assumed).
T1 sequence (looked up): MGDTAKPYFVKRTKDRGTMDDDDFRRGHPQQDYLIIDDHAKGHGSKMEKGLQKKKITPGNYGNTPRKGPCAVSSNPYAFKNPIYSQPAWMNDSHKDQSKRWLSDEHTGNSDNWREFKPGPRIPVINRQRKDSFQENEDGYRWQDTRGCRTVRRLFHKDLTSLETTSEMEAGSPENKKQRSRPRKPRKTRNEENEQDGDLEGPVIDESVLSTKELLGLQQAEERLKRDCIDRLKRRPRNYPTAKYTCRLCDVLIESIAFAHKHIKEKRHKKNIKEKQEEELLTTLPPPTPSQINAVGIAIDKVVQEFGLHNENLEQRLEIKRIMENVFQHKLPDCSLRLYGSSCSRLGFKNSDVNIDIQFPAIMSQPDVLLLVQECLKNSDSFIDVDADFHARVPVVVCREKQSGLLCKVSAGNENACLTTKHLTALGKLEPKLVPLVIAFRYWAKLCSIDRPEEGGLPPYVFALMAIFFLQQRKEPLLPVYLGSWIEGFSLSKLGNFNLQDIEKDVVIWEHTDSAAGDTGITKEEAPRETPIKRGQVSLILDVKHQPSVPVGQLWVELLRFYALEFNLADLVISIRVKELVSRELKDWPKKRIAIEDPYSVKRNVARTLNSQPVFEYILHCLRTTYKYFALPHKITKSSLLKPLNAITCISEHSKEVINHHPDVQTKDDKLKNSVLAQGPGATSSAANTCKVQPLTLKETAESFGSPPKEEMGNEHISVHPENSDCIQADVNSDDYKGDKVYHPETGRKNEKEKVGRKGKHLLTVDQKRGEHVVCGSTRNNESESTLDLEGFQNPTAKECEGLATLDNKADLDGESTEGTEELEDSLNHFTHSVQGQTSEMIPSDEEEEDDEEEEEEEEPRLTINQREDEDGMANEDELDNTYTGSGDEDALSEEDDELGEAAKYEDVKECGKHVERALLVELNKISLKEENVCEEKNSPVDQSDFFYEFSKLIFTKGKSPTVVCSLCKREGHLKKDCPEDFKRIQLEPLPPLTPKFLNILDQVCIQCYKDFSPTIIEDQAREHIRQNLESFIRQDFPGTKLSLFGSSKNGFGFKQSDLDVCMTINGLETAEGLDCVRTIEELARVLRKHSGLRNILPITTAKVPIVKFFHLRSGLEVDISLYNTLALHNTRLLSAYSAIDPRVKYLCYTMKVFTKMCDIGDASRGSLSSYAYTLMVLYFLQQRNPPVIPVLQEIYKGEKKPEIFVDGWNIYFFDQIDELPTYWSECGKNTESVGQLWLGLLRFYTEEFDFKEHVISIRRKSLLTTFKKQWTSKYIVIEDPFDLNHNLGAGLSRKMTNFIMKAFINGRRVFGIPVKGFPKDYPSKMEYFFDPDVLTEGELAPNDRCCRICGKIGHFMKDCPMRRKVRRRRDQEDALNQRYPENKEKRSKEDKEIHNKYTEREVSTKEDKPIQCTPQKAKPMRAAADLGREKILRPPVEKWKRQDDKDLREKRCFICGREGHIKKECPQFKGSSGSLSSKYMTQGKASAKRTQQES
The assay can be described thus: IP/MS, LZTR1 wild type-FLAG, U87. The method, boiled down: as §1

Chain of RNF213 (Q63HN8 whole entry, the tested form may be a part): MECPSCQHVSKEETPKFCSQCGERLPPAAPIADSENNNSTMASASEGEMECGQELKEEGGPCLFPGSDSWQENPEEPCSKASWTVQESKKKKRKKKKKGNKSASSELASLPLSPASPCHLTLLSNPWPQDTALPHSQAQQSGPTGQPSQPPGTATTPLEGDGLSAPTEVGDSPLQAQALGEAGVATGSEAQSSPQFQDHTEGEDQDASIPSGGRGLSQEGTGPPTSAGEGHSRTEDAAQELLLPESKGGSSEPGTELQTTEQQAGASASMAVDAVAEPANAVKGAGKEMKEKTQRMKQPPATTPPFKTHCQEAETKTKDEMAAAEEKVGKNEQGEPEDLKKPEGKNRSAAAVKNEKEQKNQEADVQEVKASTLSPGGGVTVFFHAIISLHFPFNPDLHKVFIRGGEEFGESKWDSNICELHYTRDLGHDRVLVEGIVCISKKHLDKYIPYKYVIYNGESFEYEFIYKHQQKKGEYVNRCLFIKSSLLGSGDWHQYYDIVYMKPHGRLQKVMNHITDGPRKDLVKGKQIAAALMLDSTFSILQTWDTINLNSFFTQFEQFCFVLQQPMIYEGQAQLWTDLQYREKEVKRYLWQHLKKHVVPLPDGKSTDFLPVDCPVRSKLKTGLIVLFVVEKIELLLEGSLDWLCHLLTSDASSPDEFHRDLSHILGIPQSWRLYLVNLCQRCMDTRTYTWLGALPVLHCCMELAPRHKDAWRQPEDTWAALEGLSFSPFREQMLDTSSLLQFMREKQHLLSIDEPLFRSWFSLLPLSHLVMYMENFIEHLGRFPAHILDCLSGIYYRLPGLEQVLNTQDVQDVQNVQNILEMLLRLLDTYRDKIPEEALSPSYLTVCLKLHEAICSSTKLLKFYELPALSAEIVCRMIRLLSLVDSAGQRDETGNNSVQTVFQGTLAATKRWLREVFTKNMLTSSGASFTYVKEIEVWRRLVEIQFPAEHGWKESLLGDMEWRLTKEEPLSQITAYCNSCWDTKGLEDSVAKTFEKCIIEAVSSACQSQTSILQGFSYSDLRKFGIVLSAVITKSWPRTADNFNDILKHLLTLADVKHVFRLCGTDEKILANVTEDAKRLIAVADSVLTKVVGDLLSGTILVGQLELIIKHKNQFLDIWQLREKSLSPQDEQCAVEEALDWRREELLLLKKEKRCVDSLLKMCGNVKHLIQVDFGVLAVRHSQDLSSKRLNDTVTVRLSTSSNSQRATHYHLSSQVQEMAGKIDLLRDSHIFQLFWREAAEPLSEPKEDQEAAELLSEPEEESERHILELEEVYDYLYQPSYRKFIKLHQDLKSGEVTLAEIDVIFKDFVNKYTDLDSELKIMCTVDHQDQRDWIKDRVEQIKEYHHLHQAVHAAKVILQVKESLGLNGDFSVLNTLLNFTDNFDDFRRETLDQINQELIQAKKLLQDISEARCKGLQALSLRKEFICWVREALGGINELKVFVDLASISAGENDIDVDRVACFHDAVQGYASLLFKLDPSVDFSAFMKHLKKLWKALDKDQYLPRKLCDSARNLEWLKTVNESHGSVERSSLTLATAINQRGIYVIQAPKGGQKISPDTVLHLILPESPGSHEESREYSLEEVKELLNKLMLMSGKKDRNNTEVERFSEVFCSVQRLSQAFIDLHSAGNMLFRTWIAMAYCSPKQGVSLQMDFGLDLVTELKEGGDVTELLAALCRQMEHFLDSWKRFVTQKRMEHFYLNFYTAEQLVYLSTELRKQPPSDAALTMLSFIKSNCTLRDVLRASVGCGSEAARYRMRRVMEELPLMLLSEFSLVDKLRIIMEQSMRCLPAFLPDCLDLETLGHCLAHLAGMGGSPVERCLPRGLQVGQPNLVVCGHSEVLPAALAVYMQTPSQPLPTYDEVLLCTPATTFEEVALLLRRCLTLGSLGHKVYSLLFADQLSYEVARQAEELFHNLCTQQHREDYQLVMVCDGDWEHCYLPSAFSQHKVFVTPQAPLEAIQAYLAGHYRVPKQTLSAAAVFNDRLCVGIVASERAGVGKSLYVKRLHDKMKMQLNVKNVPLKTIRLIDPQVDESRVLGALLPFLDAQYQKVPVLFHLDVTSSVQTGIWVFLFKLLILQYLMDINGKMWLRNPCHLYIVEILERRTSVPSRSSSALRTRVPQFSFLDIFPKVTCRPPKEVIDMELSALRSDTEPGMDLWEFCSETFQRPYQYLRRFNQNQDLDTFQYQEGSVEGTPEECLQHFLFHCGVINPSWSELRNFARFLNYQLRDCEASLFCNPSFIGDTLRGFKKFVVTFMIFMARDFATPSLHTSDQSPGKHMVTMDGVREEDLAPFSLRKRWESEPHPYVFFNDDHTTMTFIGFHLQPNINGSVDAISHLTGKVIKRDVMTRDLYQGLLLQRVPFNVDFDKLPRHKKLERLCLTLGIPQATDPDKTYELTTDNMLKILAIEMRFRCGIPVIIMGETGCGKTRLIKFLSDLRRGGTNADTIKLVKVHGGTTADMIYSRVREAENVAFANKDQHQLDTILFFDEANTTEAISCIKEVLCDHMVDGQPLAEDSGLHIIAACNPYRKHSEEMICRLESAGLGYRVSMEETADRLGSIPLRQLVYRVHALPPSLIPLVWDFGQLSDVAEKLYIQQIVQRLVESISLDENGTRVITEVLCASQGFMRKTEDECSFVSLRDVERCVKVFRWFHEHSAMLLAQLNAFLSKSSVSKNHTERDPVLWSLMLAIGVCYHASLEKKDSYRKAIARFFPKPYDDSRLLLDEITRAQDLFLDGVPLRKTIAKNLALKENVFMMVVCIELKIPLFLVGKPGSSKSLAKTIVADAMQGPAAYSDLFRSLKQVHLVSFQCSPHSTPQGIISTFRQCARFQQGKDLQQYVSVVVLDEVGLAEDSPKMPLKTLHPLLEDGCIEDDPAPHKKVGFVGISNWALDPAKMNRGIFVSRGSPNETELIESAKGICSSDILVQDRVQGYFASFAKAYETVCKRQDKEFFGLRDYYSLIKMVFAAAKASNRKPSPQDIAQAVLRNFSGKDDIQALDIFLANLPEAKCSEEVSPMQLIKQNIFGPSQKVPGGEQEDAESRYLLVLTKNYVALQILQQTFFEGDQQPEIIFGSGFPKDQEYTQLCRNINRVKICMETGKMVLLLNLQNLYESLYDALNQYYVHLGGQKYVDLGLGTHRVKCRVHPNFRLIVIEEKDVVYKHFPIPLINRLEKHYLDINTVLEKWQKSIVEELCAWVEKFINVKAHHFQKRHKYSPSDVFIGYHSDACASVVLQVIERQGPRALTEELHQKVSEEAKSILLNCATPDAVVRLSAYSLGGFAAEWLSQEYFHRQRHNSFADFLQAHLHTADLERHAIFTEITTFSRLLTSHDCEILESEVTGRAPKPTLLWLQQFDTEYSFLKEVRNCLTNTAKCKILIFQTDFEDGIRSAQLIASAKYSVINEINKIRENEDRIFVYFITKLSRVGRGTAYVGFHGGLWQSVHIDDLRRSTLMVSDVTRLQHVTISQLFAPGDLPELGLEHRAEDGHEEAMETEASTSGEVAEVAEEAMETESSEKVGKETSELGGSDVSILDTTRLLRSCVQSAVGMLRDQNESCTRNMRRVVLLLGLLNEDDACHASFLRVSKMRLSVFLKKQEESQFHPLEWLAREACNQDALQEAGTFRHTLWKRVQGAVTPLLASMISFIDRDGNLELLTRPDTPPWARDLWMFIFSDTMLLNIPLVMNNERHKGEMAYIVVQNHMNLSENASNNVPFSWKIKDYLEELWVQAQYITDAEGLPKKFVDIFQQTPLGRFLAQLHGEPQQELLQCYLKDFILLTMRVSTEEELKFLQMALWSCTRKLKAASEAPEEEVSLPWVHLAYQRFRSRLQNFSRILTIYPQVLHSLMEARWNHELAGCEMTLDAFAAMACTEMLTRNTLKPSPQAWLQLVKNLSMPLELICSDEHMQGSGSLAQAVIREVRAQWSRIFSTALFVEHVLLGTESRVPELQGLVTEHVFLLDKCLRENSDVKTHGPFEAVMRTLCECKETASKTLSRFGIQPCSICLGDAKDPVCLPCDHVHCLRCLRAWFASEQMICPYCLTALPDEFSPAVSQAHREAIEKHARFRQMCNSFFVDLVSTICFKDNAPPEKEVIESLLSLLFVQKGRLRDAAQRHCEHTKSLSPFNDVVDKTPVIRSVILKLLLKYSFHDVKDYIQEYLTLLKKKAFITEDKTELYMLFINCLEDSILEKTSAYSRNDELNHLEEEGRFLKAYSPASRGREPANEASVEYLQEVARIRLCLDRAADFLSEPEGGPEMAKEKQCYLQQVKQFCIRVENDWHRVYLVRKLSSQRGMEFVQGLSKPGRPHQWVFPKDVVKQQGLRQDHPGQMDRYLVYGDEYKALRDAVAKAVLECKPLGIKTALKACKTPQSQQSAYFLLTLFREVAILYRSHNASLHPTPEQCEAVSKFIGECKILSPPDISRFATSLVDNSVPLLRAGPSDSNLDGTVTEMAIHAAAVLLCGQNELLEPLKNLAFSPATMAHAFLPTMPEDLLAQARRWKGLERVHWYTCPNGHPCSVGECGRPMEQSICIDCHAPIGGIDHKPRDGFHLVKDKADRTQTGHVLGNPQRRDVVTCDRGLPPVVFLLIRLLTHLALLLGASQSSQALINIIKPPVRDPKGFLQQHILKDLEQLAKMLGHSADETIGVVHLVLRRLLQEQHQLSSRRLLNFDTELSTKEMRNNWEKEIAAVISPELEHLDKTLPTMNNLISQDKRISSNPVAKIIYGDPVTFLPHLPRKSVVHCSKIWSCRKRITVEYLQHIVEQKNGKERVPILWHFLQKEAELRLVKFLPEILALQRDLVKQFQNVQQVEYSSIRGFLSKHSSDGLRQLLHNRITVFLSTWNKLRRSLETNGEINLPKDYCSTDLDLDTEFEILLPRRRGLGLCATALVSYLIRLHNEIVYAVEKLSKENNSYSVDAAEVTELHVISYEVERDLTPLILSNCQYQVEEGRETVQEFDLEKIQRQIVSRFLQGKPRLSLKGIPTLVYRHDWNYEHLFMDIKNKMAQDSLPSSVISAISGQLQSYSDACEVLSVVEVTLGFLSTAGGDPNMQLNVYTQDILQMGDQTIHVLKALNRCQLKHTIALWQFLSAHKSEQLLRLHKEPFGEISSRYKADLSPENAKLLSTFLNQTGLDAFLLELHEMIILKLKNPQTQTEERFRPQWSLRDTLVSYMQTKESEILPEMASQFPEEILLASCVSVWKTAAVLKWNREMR

B1: LZTR1-FLAG (other, human, UniProt Q8N653 1-840, looked up)
chain: MAGPGSTGGQIGAAALAGGARSKVAPSVDFDHSCSDSVEYLTLNFGPFETVHRWRRLPPCDEFVGARRSKHTVVAYKDAIYVFGGDNGKTMLNDLLRFDVKDCSWCRAFTTGTPPAPRYHHSAVVYGSSMFVFGGYTGDIYSNSNLKNKNDLFEYKFATGQWTEWKIEGRLPVARSAHGATVYSDKLWIFAGYDGNARLNDMWTIGLQDRELTCWEEVAQSGEIPPSCCNFPVAVCRDKMFVFSGQSGAKITNNLFQFEFKDKTWTRIPTEHLLRGSPPPPQRRYGHTMVAFDRHLYVFGGAADNTLPNELHCYDVDFQTWEVVQPSSDSEVGGAEVPERACASEEVPTLTYEERVGFKKSRDVFGLDFGTTSAKQPTQPASELPSGRLFHAAAVISDAMYIFGGTVDNNIRSGEMYRFQFSCYPKCTLHEDYGRLWESRQFCDVEFVLGEKEECVQGHVAIVTARSRWLRRKITQARERLAQKLEQEAAPVPREAPGVAAGGARPPLLHVAIREAEARPFEVLMQFLYTDKIKYPRKGHVEDVLLIMDVYKLALSFQLCRLEQLCRQYIEASVDLQNVLVVCESAARLQLSQLKEHCLNFVVKESHFNQVIMMKEFERLSSPLIVEIVRRKQQPPPRTPLDQPVDIGTSLIQDMKAYLEGAGAEFCDITLLLDGHPRPAHKAILAARSSYFEAMFRSFMPEDGQVNISIGEMVPSRQAFESMLRYIYYGEVNMPPEDSLYLFAAPYYYGFYNNRLQAYCKQNLEMNVTVQNVLQILEAADKTQALDMKRHCLHIIVHQFTKVSKLPTLRSLSQQLLLDIIDSLASHISDKQCAELGADI
notes: Expressed in HEK 293T, HeLa or U87 cells; used as cell lysate; also called LZTR1 wild type-FLAG; LZTR1 WT; not shown: FLAG tag at the C-terminus
Regarding B1, the binding result in assay [1] and in assay [2] was “binds” in each case.
